The values below come from patent US20250163127A1.

Residue numbers refer to the chain shown, from its start. Names and notes keep the numbering of the source.

In one experiment the target is CD28 (human) (UniProt P10747). The experiment can be described thus: flow cytometry, Jurkat cells (CD28). (A flow cytometer gives signals particle by particle.)
In another experiment the target is CTLA4 (human). Briefly: flow cytometry, CHO cells stably expressing CTLA4.
For a further experiment, the target named is PD-L1 (human). Briefly: flow cytometry, CHO cells stably expressing PD-L1.
PD-L1 (human), sequence (chain, as listed by the source): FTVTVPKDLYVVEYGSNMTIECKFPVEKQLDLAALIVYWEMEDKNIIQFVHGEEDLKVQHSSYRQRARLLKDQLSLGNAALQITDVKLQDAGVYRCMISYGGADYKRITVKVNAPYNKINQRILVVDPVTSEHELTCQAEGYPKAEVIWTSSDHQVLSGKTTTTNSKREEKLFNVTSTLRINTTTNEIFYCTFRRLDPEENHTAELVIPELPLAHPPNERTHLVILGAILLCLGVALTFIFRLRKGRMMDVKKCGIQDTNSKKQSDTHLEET
The target in another experiment is human PD-1 (human) (UniProt Q15116).
human PD-1 (human), sequence (Q15116 25-288): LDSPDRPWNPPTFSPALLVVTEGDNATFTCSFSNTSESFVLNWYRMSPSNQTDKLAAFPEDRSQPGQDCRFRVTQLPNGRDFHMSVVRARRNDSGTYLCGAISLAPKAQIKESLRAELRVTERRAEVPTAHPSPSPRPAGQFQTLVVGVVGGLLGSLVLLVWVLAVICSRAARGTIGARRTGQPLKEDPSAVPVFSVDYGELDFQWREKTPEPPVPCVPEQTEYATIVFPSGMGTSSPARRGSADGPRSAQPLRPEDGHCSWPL

CTLA4 (human), sequence (chain, as listed by the source): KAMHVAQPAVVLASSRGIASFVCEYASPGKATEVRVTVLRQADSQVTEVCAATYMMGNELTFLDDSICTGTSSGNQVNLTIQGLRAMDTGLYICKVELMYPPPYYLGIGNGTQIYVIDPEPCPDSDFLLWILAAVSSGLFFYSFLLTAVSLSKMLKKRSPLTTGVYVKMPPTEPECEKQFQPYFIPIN

B1: CD80 variant H18Y/V20A/Q33L/E35D/M47V/Y53F IgV-Fc (Fc fusion)
chain: VIHVTKEVKEVATLSCGYNASVEELAQTRIYWLKDKKMVLTMMSGDVNIWPEFKNRTIFDITNNLSIVILALRPSDEGTYECVVLKYEKDAFKREHLAEVT
In the experiment with CD28 (human), B1 came in with a Fold change to WT of 0.03 fold and an MFI at 33.3 nM of 260 MFI. In the experiment with CTLA4 (human), this molecule registered a Fold change to WT CD80 of 0.02 fold and an MFI at 33.3 nM of 2880 MFI. In the experiment with PD-L1 (human), this molecule returned a Fold change to WT of 15.2 fold and an MFI at 33.3 nM of 121000 MFI.

B2: CD80 variant Q33L/E35D/N48K/L85Q/L97Q IgV-Fc (Fc fusion)
chain: B1 chain with Y18H, A20V, V47M, N48K, F53Y, L85Q, L97Q
For the molecule B2, the Fold change to WT is 0.04 fold in the experiment with CD28 (human) and 5.69 fold with PD-L1 (human). In addition, the MFI at 33.3 nM is 279 MFI with CD28 (human), 1180 MFI in the experiment with CTLA4 (human) and 45200 MFI with PD-L1 (human). Besides, in the experiment with CTLA4 (human), the Fold change to WT CD80 came to 0.01 fold.

B3: CD80 variant H18Y/E35D/V68M/L97Q IgV-Fc (Fc fusion)
chain: B1 chain with A20V, L33Q, V47M, F53Y, V68M, L97Q
In the experiment with CD28 (human), B3 had a Fold change to WT of 0.04 fold and an MFI at 33.3 nM of 299 MFI. In the experiment with CTLA4 (human), this molecule had a Fold change to WT CD80 of 0.97 fold and an MFI at 33.3 nM of 173000 MFI. In the experiment with PD-L1 (human), this molecule came in with a Fold change to WT of 15.3 fold and an MFI at 33.3 nM of 122000 MFI.

B4: CD80 variant Q33L/E35D/M43V/M47I/A71G IgV-Fc (Fc fusion)
chain: B1 chain with Y18H, A20V, M43V, V47I, F53Y, A71G
For B4, in the experiment with CD28 (human), the Fold change to WT is 0.04 fold and the MFI at 33.3 nM was determined as 284 MFI. Further, in the experiment with CTLA4 (human), the Fold change to WT CD80 was determined as 0.08 fold and the MFI at 33.3 nM came out at 14000 MFI. In the experiment with PD-L1 (human), this molecule had a Fold change to WT of 9.82 fold and an MFI at 33.3 nM of 78000 MFI.

B5: CD80 variant Q33L/E35D/M47L/A71G/F92S IgV-Fc (Fc fusion)
chain: B1 chain with Y18H, A20V, V47L, F53Y, A71G, F92S
Turning to B5, in the experiment with CD28 (human), the Fold change to WT was found to be 0.05 fold and the MFI at 33.3 nM is 366 MFI. In the experiment with CTLA4 (human), this molecule registered a Fold change to WT CD80 of 0.01 fold and an MFI at 33.3 nM of 2110 MFI. Further, in the experiment with PD-L1 (human), the Fold change to WT came out at 3.53 fold and the MFI at 33.3 nM is 28000 MFI.

B6: CD80 variant V22A/R29H/E35D/D46E/M47I IgV-Fc (Fc fusion)
chain: B1 chain with Y18H, A20V, V22A, R29H, L33Q, D46E, V47I, F53Y
On to B6, for which the Fold change to WT came to 0.04 fold with CD28 (human) and 3.2 fold with PD-L1 (human). The values for the MFI at 33.3 nM with CD28 (human), with CTLA4 (human) and with PD-L1 (human) were 323 MFI, 77400 MFI and 25400 MFI, respectively. Moreover, the Fold change to WT CD80 in the experiment with CTLA4 (human) amounted to 0.43 fold.

B7: CD80 variant H18Y/Y31H/E35D/M47V/A71G/L85Q IgV-Fc (Fc fusion)
chain: B1 chain with A20V, Y31H, L33Q, F53Y, A71G, L85Q
For the molecule B7, the Fold change to WT in the experiment with CD28 (human) came to 0.04 fold; in the experiment with PD-L1 (human) it was 9.61 fold. For the same molecule, the MFI at 33.3 nM with CD28 (human) turned out to be 268 MFI; with CTLA4 (human), 3840 MFI; with PD-L1 (human), 76400 MFI. For the same molecule, the Fold change to WT CD80 with CTLA4 (human) was determined as 0.02 fold.

B8: CD80 variant Q33L/E35D/M43I/L85Q/R94W IgV-Fc (Fc fusion)
chain: B1 chain with Y18H, A20V, M43I, V47M, F53Y, L85Q, R94W
As to B8, the Fold change to WT was 0.04 fold with CD28 (human) and 3.65 fold with PD-L1 (human). Moreover, the MFI at 33.3 nM was found to be 272 MFI with CD28 (human), 1080 MFI with CTLA4 (human) and 29000 MFI in the experiment with PD-L1 (human). In the experiment with CTLA4 (human), this molecule showed a Fold change to WT CD80 of 0.01 fold.

B9: CD80 variant E35D/D46E/M47V/L97Q IgV-Fc (Fc fusion)
chain: B1 chain with Y18H, A20V, L33Q, D46E, F53Y, L97Q
In the experiment with CD28 (human), B9 had a Fold change to WT of 0.05 fold and an MFI at 33.3 nM of 371 MFI. In the experiment with CTLA4 (human), the Fold change to WT CD80 came out at 1.71 fold and the MFI at 33.3 nM turned out to be 305000 MFI. In the experiment with PD-L1 (human), this molecule showed a Fold change to WT of 2.45 fold and an MFI at 33.3 nM of 19500 MFI.

B10: CD80 variant Q33L/E35D/M47L/V68M/L85Q/E88D IgV-Fc (Fc fusion)
chain: B1 chain with Y18H, A20V, V47L, F53Y, V68M, L85Q, E88D
In the experiment with CD28 (human), B10 registered a Fold change to WT of 0.03 fold and an MFI at 33.3 nM of 264 MFI. In addition, in the experiment with CTLA4 (human), the Fold change to WT CD80 came out at 0.02 fold and the MFI at 33.3 nM is 3530 MFI. In the experiment with PD-L1 (human), this molecule gave a Fold change to WT of 15.8 fold and an MFI at 33.3 nM of 126000 MFI.

B11: CD80 variant E35D/M47V/A71G/L85M/L97Q IgV-Fc (Fc fusion)
chain: B1 chain with Y18H, A20V, L33Q, F53Y, A71G, L85M, L97Q
In the experiment with CD28 (human), B11 gave a Fold change to WT of 0.04 fold and an MFI at 33.3 nM of 339 MFI. In the experiment with CTLA4 (human), the Fold change to WT CD80 was 1.34 fold and the MFI at 33.3 nM amounted to 239000 MFI. In the experiment with PD-L1 (human), the Fold change to WT is 7.77 fold and the MFI at 33.3 nM is 61700 MFI.

B12: CD80 variant V22A/E35D/V68E/A71D IgV-Fc (Fc fusion)
chain: B1 chain with Y18H, A20V, V22A, L33Q, V47M, F53Y, V68E, A71D
In the experiment with CD28 (human), B12 displayed a Fold change to WT of 1.83 fold and an MFI at 33.3 nM of 14000 MFI. Also, in the experiment with CTLA4 (human), the Fold change to WT CD80 was determined as 2.45 fold and the MFI at 33.3 nM amounted to 437000 MFI. For the same molecule, in the experiment with PD-L1 (human), the Fold change to WT is 0.17 fold and the MFI at 33.3 nM turned out to be 1350 MFI.

B13: variant PD-L2 IgV Q82R/V89D Fc fusion (Fc fusion)
chain: LFTVTVPKELYIIEHGSNVTLECNFDTGSHVNLGAITASLQKVENDTSPHRERATLLEEQLPLGKASFHIPQVQVRDEGQYRCIIIYGDAWDYKYLTLKVKA
B13 came in with an IFN gamma levels pg/mL (MLR) in the experiment with human PD-1 (human) of 1620 pg/mL.

B14: variant PD-L2 IgV S67L/V89D Fc fusion (Fc fusion)
chain: B13 chain with S67L, R82Q
B14 displayed an IFN gamma levels pg/mL (MLR) with human PD-1 (human) of 1230 pg/mL.

B15: variant PD-L2 IgV H15Q/C23S/I86T Fc fusion (Fc fusion)
chain: B13 chain with H15Q, C23S, R82Q, I86T, D89V
Molecule B15 gave an IFN gamma levels pg/mL (MLR) with human PD-1 (human) of 1850 pg/mL.

B16: variant PD-L2 IgV E44D/V89D/W91R Fc fusion (Fc fusion)
chain: B13 chain with E44D, R82Q, W91R
As for B16, the IFN gamma levels pg/mL (MLR) with human PD-1 (human) worked out at 1560 pg/mL.

B17: variant PD-L2 IgV H15Q/S67L/I86T Fc fusion (Fc fusion)
chain: B13 chain with H15Q, S67L, R82Q, I86T, D89V
In the experiment with human PD-1 (human), B17 had an IFN gamma levels pg/mL (MLR) of 1030 pg/mL.

B18: variant PD-L2 IgV S39I/V89D Fc fusion (Fc fusion)
chain: B13 chain with S39I, R82Q
With B18, the IFN gamma levels pg/mL (MLR) with human PD-1 (human) was found to be 1310 pg/mL.

B19: variant PD-L2 IgV H15Q/S67L/R76G Fc fusion (Fc fusion)
chain: B13 chain with H15Q, S67L, R76G, R82Q, D89V
In turn, B19 had an IFN gamma levels pg/mL (MLR) with human PD-1 (human) of 1430 pg/mL.

B20: variant PD-L2 IgV S67L/I86T Fc fusion (Fc fusion)
chain: B13 chain with S67L, R82Q, I86T, D89V
Turning to B20, the IFN gamma levels pg/mL (MLR) with human PD-1 (human) amounted to 1020 pg/mL.

B21: variant PD-L2 IgV E59G/Q82R Fc fusion (Fc fusion)
chain: B13 chain with E59G, D89V
Regarding B21, the IFN gamma levels pg/mL (MLR) with human PD-1 (human) came to 1510 pg/mL.

B22: variant PD-L2 IgV I13V/S67L/V89D Fc fusion (Fc fusion)
chain: B13 chain with I13V, S67L, R82Q
For B22, the IFN gamma levels pg/mL (MLR) with human PD-1 (human) amounted to 868 pg/mL.

B23: variant PD-L2 IgV H15Q/R76G/I85F Fc fusion (Fc fusion)
chain: B13 chain with H15Q, R76G, R82Q, I85F, D89V
Consider B23, for which the IFN gamma levels pg/mL (MLR) with human PD-1 (human) is 1730 pg/mL.

B24: variant PD-L2 IgV H15Q/T47A/Q82R Fc fusion (Fc fusion)
chain: B13 chain with H15Q, T47A, D89V
Molecule B24 showed an IFN gamma levels pg/mL (MLR) in the experiment with human PD-1 (human) of 1320 pg/mL.

B25: variant PD-L2 IgV H15Q/S39I/I86T Fc fusion (Fc fusion)
chain: B13 chain with H15Q, S39I, R82Q, I86T, D89V
For the molecule B25, the IFN gamma levels pg/mL (MLR) with human PD-1 (human) came to 1420 pg/mL.
